T1: ARHGAP21, Q5T5U3
T1 sequence (Q5T5U3 45-169, limits assumed, looked up): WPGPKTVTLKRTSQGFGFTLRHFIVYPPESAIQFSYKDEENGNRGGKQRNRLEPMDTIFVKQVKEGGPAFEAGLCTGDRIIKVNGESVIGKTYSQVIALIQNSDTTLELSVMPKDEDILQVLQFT

T2: LNX2_3, Q8N448
T2 sequence (Q8N448 463-564, limits assumed, looked up): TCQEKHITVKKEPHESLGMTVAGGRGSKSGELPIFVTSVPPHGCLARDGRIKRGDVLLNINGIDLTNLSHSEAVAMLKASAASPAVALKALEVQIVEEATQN

T3: SNTA1, Q13424
T3 sequence (Q13424 82-180, limits assumed, looked up): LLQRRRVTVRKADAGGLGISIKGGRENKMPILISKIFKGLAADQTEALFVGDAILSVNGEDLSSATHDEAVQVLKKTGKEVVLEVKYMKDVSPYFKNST

T4: GRIP1_7, Q9Y3R0
T4 sequence (Q9Y3R0 999-1096, limits assumed, looked up): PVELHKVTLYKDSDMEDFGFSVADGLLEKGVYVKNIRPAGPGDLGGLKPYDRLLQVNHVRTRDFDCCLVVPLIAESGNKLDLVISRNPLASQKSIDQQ

T5: PDZD2_2, O15018
T5 sequence (O15018 329-429, limits assumed, looked up): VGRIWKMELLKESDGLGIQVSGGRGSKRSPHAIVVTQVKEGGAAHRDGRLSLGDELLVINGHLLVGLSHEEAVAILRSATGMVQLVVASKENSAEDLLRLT

T6: DFNB31_1, Q9P202
T6 sequence (Q9P202 135-233, limits assumed, looked up): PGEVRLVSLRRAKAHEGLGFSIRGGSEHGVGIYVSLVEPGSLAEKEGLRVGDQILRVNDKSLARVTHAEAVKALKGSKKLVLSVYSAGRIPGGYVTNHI

T7: LIN7C, Q9NUP9
T7 sequence (Q9NUP9 88-185, limits assumed, looked up): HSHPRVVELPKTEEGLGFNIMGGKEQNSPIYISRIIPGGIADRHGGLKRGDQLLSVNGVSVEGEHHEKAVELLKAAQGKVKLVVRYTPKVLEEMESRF

T8: MPDZ_5, O75970
T8 sequence (O75970 695-796, limits assumed, looked up): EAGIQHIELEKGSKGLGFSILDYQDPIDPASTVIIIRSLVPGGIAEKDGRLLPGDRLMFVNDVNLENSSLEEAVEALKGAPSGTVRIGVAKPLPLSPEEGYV

T9: HTRA3, P83110
T9 sequence (P83110 354-453, limits assumed, looked up): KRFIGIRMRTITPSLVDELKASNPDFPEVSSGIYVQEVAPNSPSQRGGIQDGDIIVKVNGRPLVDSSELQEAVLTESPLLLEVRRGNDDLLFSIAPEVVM

T10: PARD3B_1, Q8TEW8
T10 sequence (Q8TEW8 196-299, limits assumed, looked up): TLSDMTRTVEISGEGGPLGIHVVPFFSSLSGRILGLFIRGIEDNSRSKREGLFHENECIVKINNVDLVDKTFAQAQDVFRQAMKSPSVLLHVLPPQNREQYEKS

T11: TX1BP3, O14907
T11 sequence (O14907 10-122, limits assumed, looked up): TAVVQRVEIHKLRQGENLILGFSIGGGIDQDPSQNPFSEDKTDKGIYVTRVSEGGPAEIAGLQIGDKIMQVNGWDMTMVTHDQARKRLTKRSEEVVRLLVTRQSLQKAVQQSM


Experiments:
Experiment in all cases: holdup assay
Design in all cases: key: below the threshold = too weak to quantify, mostly under pKd 3.1 to 4
Settings in all cases: plain residues with an end cap or a label only (N-terminal biotin on a linker: ado-ado)
[1] = molecular target: T1, ARHGAP21, Q5T5U3
[2] = molecular target: T2, LNX2_3, Q8N448
[3] = molecular target: T3, SNTA1, Q13424
[4] = molecular target: TJP1_2, Q07157
[5] = molecular target: DLG2_3, Q15700
[6] = molecular target: GRID2IP_2, A4D2P6
[7] = molecular target: T4, GRIP1_7, Q9Y3R0
[8] = molecular target: Inadl_3, Q8NI35
[9] = molecular target: Inadl_1, Q8NI35
[10] = molecular target: LAP2, Q96RT1
[11] = molecular target: T5, PDZD2_2, O15018
[12] = molecular target: Inadl_5, Q8NI35
[13] = molecular target: FRMPD3, Q5JV73
[14] = molecular target: FRMPD2_1, Q68DX3
[15] = molecular target: GORASP2, Q9H8Y8
[16] = molecular target: GIPC2, Q8TF65
[17] = molecular target: GOPC, Q9HD26
[18] = molecular target: T6, DFNB31_1, Q9P202
[19] = molecular target: T7, LIN7C, Q9NUP9
[20] = molecular target: T8, MPDZ_5, O75970
[21] = molecular target: SCRIB_2, Q14160
[22] = molecular target: T9, HTRA3, P83110
[23] = molecular target: T10, PARD3B_1, Q8TEW8
[24] = molecular target: NHERF2_2, Q15599
[25] = molecular target: T11, TX1BP3, O14907

Chain of Inadl_3, Q8NI35 (Q8NI35 359-469): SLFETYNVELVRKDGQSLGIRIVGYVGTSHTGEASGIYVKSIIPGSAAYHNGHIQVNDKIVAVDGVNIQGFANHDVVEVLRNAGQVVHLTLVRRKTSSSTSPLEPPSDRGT
Chain of Inadl_5, Q8NI35 (Q8NI35 673-780): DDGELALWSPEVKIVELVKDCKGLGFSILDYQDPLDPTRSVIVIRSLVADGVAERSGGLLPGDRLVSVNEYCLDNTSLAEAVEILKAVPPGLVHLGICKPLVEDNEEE
Chain of Inadl_1, Q8NI35 (Q8NI35 113-229): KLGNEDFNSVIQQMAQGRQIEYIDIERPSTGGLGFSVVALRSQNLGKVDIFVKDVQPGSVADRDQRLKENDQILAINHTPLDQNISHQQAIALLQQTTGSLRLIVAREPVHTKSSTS
Chain of FRMPD2_1, Q68DX3 (Q68DX3 770-861): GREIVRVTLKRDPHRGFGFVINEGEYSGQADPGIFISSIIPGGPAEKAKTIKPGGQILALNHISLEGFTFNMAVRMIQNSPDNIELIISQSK
Chain of LAP2, Q96RT1 (Q96RT1 other isoform, or with tags, fused parts or gaps): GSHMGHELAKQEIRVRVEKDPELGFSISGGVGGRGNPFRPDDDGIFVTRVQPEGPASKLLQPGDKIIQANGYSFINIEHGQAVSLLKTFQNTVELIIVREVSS
Chain of TJP1_2, Q07157 (Q07157 181-274): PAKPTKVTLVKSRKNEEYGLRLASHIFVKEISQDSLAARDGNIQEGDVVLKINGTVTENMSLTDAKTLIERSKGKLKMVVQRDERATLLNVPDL
Chain of NHERF2_2, Q15599 (Q15599 142-238): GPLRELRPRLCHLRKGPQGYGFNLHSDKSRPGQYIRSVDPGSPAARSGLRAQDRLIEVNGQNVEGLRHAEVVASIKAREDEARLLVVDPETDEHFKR
Chain of SCRIB_2, Q14160 (Q14160 857-960): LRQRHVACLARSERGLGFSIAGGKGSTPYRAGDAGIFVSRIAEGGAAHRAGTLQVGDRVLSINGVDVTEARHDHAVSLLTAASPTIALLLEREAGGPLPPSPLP
Chain of FRMPD3, Q5JV73 (Q5JV73 12-100): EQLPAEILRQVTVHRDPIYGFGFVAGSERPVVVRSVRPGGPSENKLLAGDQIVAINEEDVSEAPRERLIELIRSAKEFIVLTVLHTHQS
Chain of GRID2IP_2, A4D2P6 (A4D2P6 272-370): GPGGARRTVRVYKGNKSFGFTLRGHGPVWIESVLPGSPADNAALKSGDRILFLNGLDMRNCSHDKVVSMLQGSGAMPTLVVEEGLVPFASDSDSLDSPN
Chain of GIPC2, Q8TF65 (Q8TF65 112-203): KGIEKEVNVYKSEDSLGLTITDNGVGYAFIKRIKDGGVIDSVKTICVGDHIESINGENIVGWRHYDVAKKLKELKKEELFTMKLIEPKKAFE

| pKd [1] | pKd [2] | pKd [3] | pKd [4] | pKd [5] | pKd [6] | pKd [7] | pKd [8] | pKd [9] | pKd [10] | pKd [11] | pKd [12] | pKd [13] | pKd [14] | pKd [15] | pKd [16] | pKd [17] | pKd [18] | pKd [19] | pKd [20] | Binder | further results |
| --- | --- | --- | --- | --- | --- | --- | --- | --- | --- | --- | --- | --- | --- | --- | --- | --- | --- | --- | --- | --- | --- |
| below the threshold | below the threshold | below the threshold | below the threshold | 3.65 | below the threshold | below the threshold | 4.8 | 3.64 | below the threshold | 3.75 | below the threshold | below the threshold | below the threshold | 4.72 | below the threshold | below the threshold | below the threshold | below the threshold | below the threshold | DDEDRLVIEI [ZNF831, Q5JPB2] | pKd [21]: below the threshold; pKd [22]: 4; pKd [23]: 3.62; pKd [24]: below the threshold; pKd [25]: below the threshold |
| 3.85 | below the threshold | 4.77 | below the threshold | 4.28 | 3.53 | below the threshold | 3.56 | below the threshold | 5.27 | 4.81 | below the threshold | below the threshold | below the threshold | 4.06 | 3.83 | 3.85 | 3.83 | below the threshold | below the threshold | PKRSFIESNV [TANC1, Q9C0D5] | pKd [21]: 4.88; pKd [22]: below the threshold; pKd [23]: below the threshold; pKd [24]: below the threshold; pKd [25]: 5.72 |
| below the threshold | below the threshold | below the threshold | below the threshold | 3.65 | below the threshold | below the threshold | below the threshold | below the threshold | below the threshold | below the threshold | below the threshold | below the threshold | below the threshold | below the threshold | below the threshold | below the threshold | below the threshold | below the threshold | below the threshold | QKNRKAQEDL [CES3, Q6UWW8] | pKd [21]: below the threshold; pKd [22]: below the threshold; pKd [23]: below the threshold; pKd [24]: below the threshold; pKd [25]: below the threshold |
| 4 | below the threshold | below the threshold | 3.72 | below the threshold | 3.58 | below the threshold | 3.55 | below the threshold | below the threshold | below the threshold | 4.1 | below the threshold | 4.36 | 3.81 | below the threshold | 3.58 | 3.51 | below the threshold | 3.84 | QMNQTLPVQV [EPHB3, P54753] | pKd [21]: below the threshold; pKd [22]: below the threshold; pKd [23]: 3.78; pKd [24]: 3.51; pKd [25]: below the threshold |
| 4.17 | below the threshold | 4.82 | below the threshold | 4.19 | 4.36 | below the threshold | 3.59 | below the threshold | 3.94 | 3.56 | below the threshold | 3.5 | below the threshold | below the threshold | 3.92 | 4.41 | 4.61 | 4.43 | below the threshold | RHGSCVETSL [TMEM151B, Q8IW70] | pKd [21]: 4.43; pKd [22]: below the threshold; pKd [23]: 3.95; pKd [24]: 4.75; pKd [25]: 4.8 |
| below the threshold | below the threshold | below the threshold | below the threshold | below the threshold | below the threshold | below the threshold | below the threshold | below the threshold | below the threshold | below the threshold | below the threshold | below the threshold | below the threshold | below the threshold | below the threshold | below the threshold | below the threshold | below the threshold | below the threshold | IPLDGETEEL [MYOZ1, Q9NP98] | pKd [21]: below the threshold; pKd [22]: below the threshold; pKd [23]: below the threshold; pKd [24]: 3.96; pKd [25]: below the threshold |

From PMC9482650, “Quantitative fragmentomics allow affinity mapping of interactomes” (Nature Communications, 2022)
